Entries after “also recorded” stand apart in the source; their conditions may differ.
Legend:
[1] = system: inflammatory mediators in the gingiva of aged mice; assay: qPCR of gingival mRNA in aged mice after local administration of soluble Del-1; type: in vivo, C57BL/6 mice; settings: 12 h
Procedure: (§1) Ten 18-month-old C57BL/6 mice were microinjected in the gingiva with soluble recombinant mouse Del-1 (kindly provided by Valentis, Inc.)^4 and another ten mice with BSA control. Specifically, Del-1 or BSA (1 μg in 1-μl volume) were microinjected through a 28.5-gauge MicroFine needle (BD) into the palatal gingiva between the first and the second molar teeth, on both sides of the maxilla. Half of the Del-1 or BSAtreated mice were additionally orally inoculated with P. gingivalis ATCC 33277 (10^9 CFU) in 2% carboxymethylcellulose vehicle and the other half were orally given vehicle alone. All mice were sacrificed 12 h later. Maxillae were harvested and one side was stored in 4% paraformaldehyde for immunohistochemistry (see below), while the other side was used to dissect interdental gingiva which were placed into RNAlater solution (Ambion) for qPCR (see below). To determine whether IL-17 regulates Del-1 expression, a neutralizing anti-IL-17A mAb (clone M210, rat IgG2a; kindly provided by Amgen) was microinjected into the palatal gingiva (1 μg) as described above. Purified azide-free rat IgG2a (Biolegend) served as control. qPCR was used to determine […] in dissected gingiva.
Total RNA was extracted from excised gingival tissue or cultured cells using the PerfectPure RNA cell kit (5 Prime, Fisher) and quantified by spectrometry at 260 and 280 nm. The RNA was reverse-transcribed using the High-Capacity cDNA Archive kit (Applied Biosystems) and qPCR with cDNA was performed using the ABI 7500 Fast System, according to the manufacturer's protocol (Applied Biosystems). TaqMan probes, sense primers, and antisense primers for qPCR of genes investigated in this paper were purchased from Applied Biosystems.

WT neutrophils = assay: Cytokine/chemokine release by isolated neutrophils stimulated with LPS plus C5a; type: cell-based, mouse; settings: soluble Del-1 10 μg/ml, LPS (100 ng/ml) plus C5a (10 nM), 4 h
Procedure: FIG. 27. Effects of Del-1 deficiency or Del-1 on neutrophil function. (a) Migration of neutrophils isolated from wild-type (WT) or Edil3^−/− mice was tested in a transwell system. Chemokinesis (in the absence of a chemokine in the bottom well) or chemotaxis to CXCL2 (10 ng/ml) in the bottom well was assessed after 60 min. The migration of WT neutrophils in the absence of chemokine was set as the 100% control (dashed line) and the data were expressed relative to this value. (b) Neutrophils isolated from WT or Edil3^−/− mice were stimulated or not for 4 h with LPS (100 ng/ml) plus C5a (10 nM) and release of the indicated cytokines or chemokines in the culture supernatants was determined by ELISA. (c) WT neutrophils, in the presence or absence of soluble Del-1 (10 μg/ml), were stimulated as above and assayed for release of the indicated cytokines or chemokines. Data are means±SD (n=3 sets of neutrophils), from one of two independent sets of experiments yielding similar results.
Mouse neutrophils were obtained by harvesting the bone marrow (Ley (2007)). Briefly, bone marrow cells, obtained after flushing tibias and femurs with RPMI 1640 containing 10% FBS, were depleted of tissue debris and erythrocytes and were resuspended in 45% Percoll. […] Neutrophil purity was routinely >95%, as determined by FACS after staining for Ly6G, F4/80, and CD3.

mouse neutrophils = settings: cited from earlier work
LFA-1 = molecular target: T1, LFA-1 (Mus musculus, UniProt P24063); settings: at equimolar amounts; cited from earlier work
T1 construct: host or cells: leukocytes (endogenous LFA-1)

[2] = system: periodontal inflammation in old mice; assay: Immunohistochemistry of interdental gingiva of old mice microinjected with Del-1 or BSA; type: in vivo, C57BL/6 mice
Procedure: FIG. 24. Del-1 inhibits IL-17 and periodontal inflammation in old mice. Eighteen-month-old C57BL/6 mice were microinjected in the gingiva with BSA (control) or Del-1, as indicated. In addition, the mice were orally administered P. gingivalis in 2% carboxymethylcellulose vehicle (a, b, c; lower rows) or vehicle control (a, b, c; upper rows) and were sacrificed 12 h later. Sagittal sections of interdental gingiva were stained for the neutrophil marker Ly6G (a), IL-17A (b), or TNF (c). Shown are typical fluorescent confocal images (left) and their overlays with corresponding DIC images (right). (d) The fluorescence intensities of these and additional representative images from independent mice were quantified using ImageJ analysis; data were expressed as % intensity of the Del-1-treated groups relative to the BSA-treated controls, the value of which was set to 100% (dashed line). ‘Induced inflammation’ refers to the groups inoculated with P. gingivalis. Data are means±SD (n=5 mice per group) from one of two independent experiments yielding similar results. **P<0.01 compared to BSA-treated controls.
as §1
Maxillae with intact surrounding tissue were fixed in 4% paraformaldehyde, decalcified in Immunocal solution (Decal) for 15 days, and embedded in OCT compound. Serial mesio-distal sections (7- to 8-μm thick) parallel to the long axis of the teeth (sagittal) were stained with monoclonal antibodies to mouse Ly6G (RB6-8C5, FITC-conjugate; LifeSpan BioSciences), mouse CD4 (GK1.5, FITC- or PE-conjugate; LifeSpan), mouse γδ T-cell receptor (GL3, FITC-conjugate; LifeSpan Biosciences) or with polyclonal antibodies to human/mouse Del-1 (ProteinTech), human/mouse IL-17A (Santa Cruz Biotech), human/mouse TNF (Abcam), human/mouse RANKL (Santa Cruz), and mouse CD31 (LifeSpan). Where necessary, staining involved the use of a secondary reagent (AlexaFluor594-conjugated goat anti-rabbit IgG; Molecular Probes). The specificity of staining was confirmed by using appropriate FITC-conjugated isotype controls or normal rabbit IgG followed by AlexaFluor594-goat anti-rabbit IgG. Images were captured using a laser-scanning confocal microscope (Olympus FV1000). Fluorescence intensity was quantified using the Image J software (NIH; http://rsb.info.nih.gov/ij).

[3] = 18-month-old mice, local gingival microinjection 1 μg, compared to BSA control

T1 sequence (P24063 24-1162): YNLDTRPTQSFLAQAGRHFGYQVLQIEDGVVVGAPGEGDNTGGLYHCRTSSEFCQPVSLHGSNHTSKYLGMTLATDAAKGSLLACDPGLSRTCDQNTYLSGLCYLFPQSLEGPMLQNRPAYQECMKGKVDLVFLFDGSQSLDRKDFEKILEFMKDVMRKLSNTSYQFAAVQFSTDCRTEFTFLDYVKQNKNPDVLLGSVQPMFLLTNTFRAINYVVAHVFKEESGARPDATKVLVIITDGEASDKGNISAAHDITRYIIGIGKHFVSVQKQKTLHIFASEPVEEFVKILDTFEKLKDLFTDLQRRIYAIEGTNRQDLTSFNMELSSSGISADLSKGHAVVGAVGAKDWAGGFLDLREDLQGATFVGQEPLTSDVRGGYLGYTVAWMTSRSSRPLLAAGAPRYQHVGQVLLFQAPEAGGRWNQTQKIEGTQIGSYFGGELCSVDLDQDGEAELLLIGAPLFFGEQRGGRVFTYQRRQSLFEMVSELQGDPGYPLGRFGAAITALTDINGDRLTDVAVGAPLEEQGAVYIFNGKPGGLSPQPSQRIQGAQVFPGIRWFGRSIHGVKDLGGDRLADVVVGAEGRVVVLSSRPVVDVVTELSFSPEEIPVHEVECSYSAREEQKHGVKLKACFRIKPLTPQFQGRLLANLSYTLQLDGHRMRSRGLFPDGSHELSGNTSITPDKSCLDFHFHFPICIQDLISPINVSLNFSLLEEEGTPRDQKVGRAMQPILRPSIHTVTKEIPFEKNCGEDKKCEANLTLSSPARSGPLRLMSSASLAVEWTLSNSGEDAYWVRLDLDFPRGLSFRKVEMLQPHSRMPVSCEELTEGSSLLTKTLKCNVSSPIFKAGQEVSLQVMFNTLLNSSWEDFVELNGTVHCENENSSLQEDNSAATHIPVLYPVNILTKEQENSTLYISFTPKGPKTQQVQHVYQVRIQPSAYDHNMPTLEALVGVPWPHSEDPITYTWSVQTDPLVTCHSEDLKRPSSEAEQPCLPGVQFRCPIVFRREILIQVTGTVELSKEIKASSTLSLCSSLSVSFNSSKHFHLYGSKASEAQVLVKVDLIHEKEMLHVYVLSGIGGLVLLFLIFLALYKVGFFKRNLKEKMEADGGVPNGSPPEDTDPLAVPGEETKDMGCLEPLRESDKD
T1 sequence (P11835 24-771 partner): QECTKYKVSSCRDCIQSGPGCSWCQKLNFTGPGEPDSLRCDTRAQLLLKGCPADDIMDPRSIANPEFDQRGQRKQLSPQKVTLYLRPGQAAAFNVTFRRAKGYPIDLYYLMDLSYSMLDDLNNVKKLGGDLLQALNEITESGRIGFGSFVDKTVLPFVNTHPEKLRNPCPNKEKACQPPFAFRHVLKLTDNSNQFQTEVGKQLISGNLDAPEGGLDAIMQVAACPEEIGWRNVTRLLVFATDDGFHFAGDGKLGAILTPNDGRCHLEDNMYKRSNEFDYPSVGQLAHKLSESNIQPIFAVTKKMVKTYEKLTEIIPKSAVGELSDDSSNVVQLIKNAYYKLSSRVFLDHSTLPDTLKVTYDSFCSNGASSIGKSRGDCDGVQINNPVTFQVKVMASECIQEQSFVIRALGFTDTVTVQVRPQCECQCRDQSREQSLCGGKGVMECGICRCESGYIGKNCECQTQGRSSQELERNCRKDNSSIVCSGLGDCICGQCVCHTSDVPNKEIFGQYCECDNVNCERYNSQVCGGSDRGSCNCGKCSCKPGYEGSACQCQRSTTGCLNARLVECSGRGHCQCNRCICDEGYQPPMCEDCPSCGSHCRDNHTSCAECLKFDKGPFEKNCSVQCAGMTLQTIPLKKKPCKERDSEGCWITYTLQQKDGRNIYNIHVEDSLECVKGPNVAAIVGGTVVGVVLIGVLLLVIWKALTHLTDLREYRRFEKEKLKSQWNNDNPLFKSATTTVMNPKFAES

B1: Del-1: soluble recombinant mouse Del-1 (provided by Valentis, Inc.); endothelial cell-expressed 52-kDa glycoprotein (protein)
chain: DICDPNPCENGGICLPGLADGSFSCECPDGFTDPNCSSVVEVASDEEEPTSAGPCTPNPCHNGGTCEISEAYRGDTFIGYVCKCPRGFNGIHCQHNINECEVEPCKNGGICTDLVANYSCECPGEFMGRNCQYKCSGPLGIEGGIISNQQITASSTHRALFGLQKWYPYYARLNKKGLINAWTAAENDRWPWIQINLQRKMRVTGVITQGAKRIGSPEYIKSYKIAYSNDGKTWAMYKVKGTNEDMVFRGNIDNNTPYANSFTPPIKAQYVRLYPQVCRRHCTLRMELLGCELSGCSEPLGMKSGHIQDYQITASSIFRTLNMDMFTWEPRKARLDKQGKVNAWTSGHNDQSQWLQVDLLVPTKVTGIITQGAKDFGHVQFVGSYKLAYSNDGEHWTVYQDEKQRKDKVFQGNFDNDTHRKNVIDPPIYARHIRILPWSWYGRITLRSELLGCTEEE
With B1 the “C3aR mRNA, Fold change vs. Del-1-untreated controls” value ([1]; CMC only) was 0.49 Fold change, the “C5aR mRNA, Fold change vs. Del-1-untreated controls” value ([1]; CMC only) was 0.50 Fold change and the “CCL2 mRNA, Fold change vs. Del-1-untreated controls” value ([1]; CMC only) was 0.48 Fold change. For the same molecule, the “CCL3 mRNA, Fold change vs. Del-1-untreated controls” value ([1]; CMC only) was 1.02 Fold change, the “CCL20 mRNA, Fold change vs. Del-1-untreated controls” value ([1]; CMC only) was 0.24 Fold change and the “CCR2 mRNA, Fold change vs. Del-1-untreated controls” value ([1]; CMC only) was 0.26 Fold change. The “CCR6 mRNA, Fold change vs. Del-1-untreated controls” value ([1]; CMC only) was 0.25 Fold change, the “CD40 mRNA, Fold change vs. Del-1-untreated controls” value ([1]; CMC only) was 0.24 Fold change and the “CD80 mRNA, Fold change vs. Del-1-untreated controls” value ([1]; CMC only) was 0.25 Fold change. For the same molecule, the “CD86 mRNA, Fold change vs. Del-1-untreated controls” value ([1]; CMC only) was 0.50 Fold change, the “CXCL10 mRNA, Fold change vs. Del-1-untreated controls” value ([1]; CMC only) was 0.25 Fold change and the “CXCR4 mRNA, Fold change vs. Del-1-untreated controls” value ([1]; CMC only) was 0.50 Fold change. For the same molecule, the “G-CSF mRNA, Fold change vs. Del-1-untreated controls” value ([1]; CMC only) was 0.12 Fold change, the “IL-1 mRNA, Fold change vs. Del-1-untreated controls” value ([1]; CMC only) was 0.50 Fold change and the “IL-6 mRNA, Fold change vs. Del-1-untreated controls” value ([1]; CMC only) was 0.25 Fold change. For the same molecule, the “IL-17 mRNA, Fold change vs. Del-1-untreated controls” value ([1]; CMC only) was 0.19 Fold change, the “RANKL mRNA, Fold change vs. Del-1-untreated controls” value ([1]; CMC only) was 0.49 Fold change and the “TLR1 mRNA, Fold change vs. Del-1-untreated controls” value ([1]; CMC only) was 0.24 Fold change. The “TLR2 mRNA, Fold change vs. Del-1-untreated controls” value ([1]; CMC only) was 0.26 Fold change, the “TLR4 mRNA, Fold change vs. Del-1-untreated controls” value ([1]; CMC only) was 0.25 Fold change and the “TLR5 mRNA, Fold change vs. Del-1-untreated controls” value ([1]; CMC only) was 0.51 Fold change. The “TLR6 mRNA, Fold change vs. Del-1-untreated controls” value ([1]; CMC only) was 0.27 Fold change, the “TLR9 mRNA, Fold change vs. Del-1-untreated controls” value ([1]; CMC only) was 0.25 Fold change and the “TNF mRNA, Fold change vs. Del-1-untreated controls” value ([1]; CMC only) was 0.50 Fold change. The “TREM-1 mRNA, Fold change vs. Del-1-untreated controls” value ([1]; CMC only) was 0.49 Fold change, the “C3aR mRNA, Fold change vs. Del-1-untreated controls” value ([1]; Pg (P. gingivalis inoculated)) was 0.49 Fold change and the “C5aR mRNA, Fold change vs. Del-1-untreated controls” value ([1]; Pg (P. gingivalis inoculated)) was 0.25 Fold change. The “CCL2 mRNA, Fold change vs. Del-1-untreated controls” value ([1]; Pg (P. gingivalis inoculated)) was 0.49 Fold change, the “CCL3 mRNA, Fold change vs. Del-1-untreated controls” value ([1]; Pg (P. gingivalis inoculated)) was 0.51 Fold change and the “CCL20 mRNA, Fold change vs. Del-1-untreated controls” value ([1]; Pg (P. gingivalis inoculated)) was 0.49 Fold change. For the same molecule, the “CCR2 mRNA, Fold change vs. Del-1-untreated controls” value ([1]; Pg (P. gingivalis inoculated)) was 0.12 Fold change, the “CCR6 mRNA, Fold change vs. Del-1-untreated controls” value ([1]; Pg (P. gingivalis inoculated)) was 0.13 Fold change and the “CD40 mRNA, Fold change vs. Del-1-untreated controls” value ([1]; Pg (P. gingivalis inoculated)) was 0.25 Fold change. For the same molecule, the “CD80 mRNA, Fold change vs. Del-1-untreated controls” value ([1]; Pg (P. gingivalis inoculated)) was 0.25 Fold change, the “CD86 mRNA, Fold change vs. Del-1-untreated controls” value ([1]; Pg (P. gingivalis inoculated)) was 0.49 Fold change and the “CXCL10 mRNA, Fold change vs. Del-1-untreated controls” value ([1]; Pg (P. gingivalis inoculated)) was 0.26 Fold change. The “CXCR4 mRNA, Fold change vs. Del-1-untreated controls” value ([1]; Pg (P. gingivalis inoculated)) was 0.24 Fold change, the “G-CSF mRNA, Fold change vs. Del-1-untreated controls” value ([1]; Pg (P. gingivalis inoculated)) was 0.25 Fold change and the “IL-1 mRNA, Fold change vs. Del-1-untreated controls” value ([1]; Pg (P. gingivalis inoculated)) was 0.25 Fold change. For the same molecule, the “IL-6 mRNA, Fold change vs. Del-1-untreated controls” value ([1]; Pg (P. gingivalis inoculated)) was 0.24 Fold change, the “IL-17 mRNA, Fold change vs. Del-1-untreated controls” value ([1]; Pg (P. gingivalis inoculated)) was 0.25 Fold change and the “RANKL mRNA, Fold change vs. Del-1-untreated controls” value ([1]; Pg (P. gingivalis inoculated)) was 0.25 Fold change. For the same molecule, the “TLR1 mRNA, Fold change vs. Del-1-untreated controls” value ([1]; Pg (P. gingivalis inoculated)) was 0.24 Fold change, the “TLR2 mRNA, Fold change vs. Del-1-untreated controls” value ([1]; Pg (P. gingivalis inoculated)) was 0.25 Fold change and the “TLR4 mRNA, Fold change vs. Del-1-untreated controls” value ([1]; Pg (P. gingivalis inoculated)) was 0.12 Fold change. The “TLR5 mRNA, Fold change vs. Del-1-untreated controls” value ([1]; Pg (P. gingivalis inoculated)) was 0.51 Fold change, the “TLR6 mRNA, Fold change vs. Del-1-untreated controls” value ([1]; Pg (P. gingivalis inoculated)) was 0.26 Fold change and the “TLR9 mRNA, Fold change vs. Del-1-untreated controls” value ([1]; Pg (P. gingivalis inoculated)) was 0.51 Fold change. The “TNF mRNA, Fold change vs. Del-1-untreated controls” value ([1]; Pg (P. gingivalis inoculated)) was 0.51 Fold change, the “TREM-1 mRNA, Fold change vs. Del-1-untreated controls” value ([1]; Pg (P. gingivalis inoculated)) was 0.24 Fold change and the “cytokine and chemokine induction (TNF, CXCL1 release) by neutrophils” value (WT neutrophils) was “did not exert a direct effect; also recorded: No significant differences”. The “LFA-1-dependent adhesion of mouse neutrophils to mouse endothelial cells” value (mouse neutrophils) was “competitively inhibits”, the “competition with ICAM-1 for binding to LFA-1 on leukocytes” value (LFA-1) was “outcompetes ICAM-1” and the “expression of IL-17 in the periodontium” value [2, 3] was “diminished”. The “expression of TNF in the periodontium” value [2, 3] was “diminished”, the “neutrophil infiltration in the periodontium (Ly6G staining)” value [2, 3] was “reduced” and the “inflammation induced by oral inoculation with Porphyromonas gingivalis” value ([2]; old mice, P. gingivalis inoculated) was “suppressed”. The “constitutive (naturally occurring) inflammation” value ([2]; old mice, vehicle only) was “suppressed”.

— patent publication US20140302027A1, “METHODS OF TREATING PERIODONTAL INFLAMMATION AND PERIODONTAL BONE LOSS” (United States of America as Represented by the Secretary, …, priority 2011, published 2014)
